In assay [1] the target is TMexC1 adapter prepared alone, C-terminal 6x His tag (Klebsiella pneumoniae). The experiment in a line: SEC.
Assay [2] deals with TMexC1 adapter, Strep-tagged, from the single plasmid pBAD24::tmexCD1-toprJ1 (Klebsiella pneumoniae). Briefly: cryo-EM structure.
Assay [3] addresses TMexD1 transporter, C-terminal 6x His tag (pET28::tmexD1) (Klebsiella pneumoniae). Briefly: SEC. (Size exclusion chromatography separates by hydrodynamic size, large species first.)
Assay [4] concerns the target TMexD1 transporter, tag-free, from the single plasmid pBAD24::tmexCD1-toprJ1 (Klebsiella pneumoniae). The experiment in a line: cryo-EM structure.
Assay [5] concerns the target TOprJ1 outer-membrane channel prepared alone, C-terminal 6x His tag (pET28::toprJ1) (Klebsiella pneumoniae). Briefly: negative-stain electron microscopy.
For assay [6] the target is unchanged. The experiment in a line: SEC.
Assay [7] has as its target TOprJ1 outer-membrane channel, 6x His-tagged, from the single plasmid pBAD24::tmexCD1-toprJ1 (Klebsiella pneumoniae). Briefly: cryo-EM structure.

As usually defined, the stoichiometry N is the number of molecules, sites or subunits per partner or assembly.

In the case of “TMexC1 adapter prepared alone, C-terminal 6x His tag (natural protein)”, the stoichiometry N in assay [1] is 6.
Regarding “TMexC1 adapter, Strep-tagged, from the single plasmid pBAD24::tmexCD1-toprJ1 (natural protein)”, in assay [2], the stoichiometry N came out at 6.
Substance “TMexD1 transporter, C-terminal 6x His tag (pET28::tmexD1) (natural protein)” showed a stoichiometry N in assay [3] of 3.
For the substance “TMexD1 transporter, tag-free, from the single plasmid pBAD24::tmexCD1-toprJ1 (natural protein)”, the stoichiometry N in assay [4] turned out to be 3.
On to “TOprJ1 outer-membrane channel prepared alone, C-terminal 6x His tag (pET28::toprJ1) (natural protein)”, for which the stoichiometry N in assay [5] and in assay [6] was 3 in each case.
In assay [7], “TOprJ1 outer-membrane channel, 6x His-tagged, from the single plasmid pBAD24::tmexCD1-toprJ1 (natural protein)” came in with a stoichiometry N of 3.

The values are drawn from article PMC12618663.
